Experimental data reported in article PMC11912836, “Msh2-Msh3 DNA-binding is not sufficient to promote trinucleotide repeat expansions in Saccharomyces cerevisiae”.

Legend:
[1] = target: Msh2-msh6(3MBD) (Saccharomyces cerevisiae) (UniProt P25847+Q03834); experiment: BLI; conditions: BLI: 25 mM Tris-HCl pH 7.5, 1 mM EDTA, 100 mM NaCl, 0.1 mg/mL BSA, 1 mM DTT, 0.05% Tween-20; DNA 7.5 nM (30 nM for Msh2-Msh6); temperature not stated; no …
Msh2-Msh6 = Msh2-Msh6 (Saccharomyces cerevisiae, UniProt P25847;Q03834 1-964;1-1242); experiment: BLI; BLI: 25 mM Tris-HCl pH 7.5, 1 mM EDTA, 100 mM NaCl, 0.1 mg/mL BSA, 1 mM DTT, 0.05% Tween-20; DNA 7.5 nM (30 nM for Msh2-Msh6); temperature not stated; no nucleotide or Mg2+ listed; conditions: protein: recombinant, copies: 1;1, label: 5' biotin on bottom strand
Msh2-Msh3 = Msh2-Msh3 (Saccharomyces cerevisiae, UniProt P25847;P25336 1-964;1-1018); experiment: as above; conditions: protein: recombinant, copies: 1;1, label: 5' biotin on bottom strand
[2] = as printed, bottom strand has 1 extra nt (T opposite missing A after CTAGG of top; possible misprint), described as homoduplex
[3] = blunt, extrahelical (CTG)10 quasi-hairpin in top strand
[4] = blunt, 8-nt extrahelical loop in top strand
[5] = blunt, extrahelical (CAG)10 quasi-hairpin in top strand

Chain of Msh2-Msh3 (P25847 whole entry, chain 1 of 2): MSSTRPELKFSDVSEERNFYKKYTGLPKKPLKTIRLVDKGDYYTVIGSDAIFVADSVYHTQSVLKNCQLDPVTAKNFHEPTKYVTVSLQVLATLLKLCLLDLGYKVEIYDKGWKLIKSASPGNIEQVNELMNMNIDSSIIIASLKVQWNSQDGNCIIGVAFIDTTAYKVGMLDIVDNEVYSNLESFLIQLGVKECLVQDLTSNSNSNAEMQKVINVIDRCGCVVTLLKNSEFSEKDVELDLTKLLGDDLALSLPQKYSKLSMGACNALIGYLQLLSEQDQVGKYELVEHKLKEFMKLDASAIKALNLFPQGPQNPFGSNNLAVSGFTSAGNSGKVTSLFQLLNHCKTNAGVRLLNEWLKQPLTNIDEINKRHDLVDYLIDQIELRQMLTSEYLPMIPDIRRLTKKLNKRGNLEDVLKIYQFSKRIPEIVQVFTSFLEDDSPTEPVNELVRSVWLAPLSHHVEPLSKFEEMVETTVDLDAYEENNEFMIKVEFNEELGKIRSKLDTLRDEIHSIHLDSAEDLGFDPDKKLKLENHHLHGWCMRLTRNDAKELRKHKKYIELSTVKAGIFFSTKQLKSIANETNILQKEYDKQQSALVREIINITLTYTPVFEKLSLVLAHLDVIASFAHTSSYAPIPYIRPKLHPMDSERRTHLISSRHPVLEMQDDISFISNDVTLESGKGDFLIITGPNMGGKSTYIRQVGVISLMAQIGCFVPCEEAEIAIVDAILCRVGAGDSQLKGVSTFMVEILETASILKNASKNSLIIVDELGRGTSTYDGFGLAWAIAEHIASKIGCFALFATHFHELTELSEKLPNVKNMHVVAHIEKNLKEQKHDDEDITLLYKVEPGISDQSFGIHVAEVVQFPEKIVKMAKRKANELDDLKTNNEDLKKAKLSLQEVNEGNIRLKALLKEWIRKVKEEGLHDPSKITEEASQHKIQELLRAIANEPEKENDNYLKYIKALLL
Chain of Msh2-Msh3 (P25336 whole entry, chain 2 of 2): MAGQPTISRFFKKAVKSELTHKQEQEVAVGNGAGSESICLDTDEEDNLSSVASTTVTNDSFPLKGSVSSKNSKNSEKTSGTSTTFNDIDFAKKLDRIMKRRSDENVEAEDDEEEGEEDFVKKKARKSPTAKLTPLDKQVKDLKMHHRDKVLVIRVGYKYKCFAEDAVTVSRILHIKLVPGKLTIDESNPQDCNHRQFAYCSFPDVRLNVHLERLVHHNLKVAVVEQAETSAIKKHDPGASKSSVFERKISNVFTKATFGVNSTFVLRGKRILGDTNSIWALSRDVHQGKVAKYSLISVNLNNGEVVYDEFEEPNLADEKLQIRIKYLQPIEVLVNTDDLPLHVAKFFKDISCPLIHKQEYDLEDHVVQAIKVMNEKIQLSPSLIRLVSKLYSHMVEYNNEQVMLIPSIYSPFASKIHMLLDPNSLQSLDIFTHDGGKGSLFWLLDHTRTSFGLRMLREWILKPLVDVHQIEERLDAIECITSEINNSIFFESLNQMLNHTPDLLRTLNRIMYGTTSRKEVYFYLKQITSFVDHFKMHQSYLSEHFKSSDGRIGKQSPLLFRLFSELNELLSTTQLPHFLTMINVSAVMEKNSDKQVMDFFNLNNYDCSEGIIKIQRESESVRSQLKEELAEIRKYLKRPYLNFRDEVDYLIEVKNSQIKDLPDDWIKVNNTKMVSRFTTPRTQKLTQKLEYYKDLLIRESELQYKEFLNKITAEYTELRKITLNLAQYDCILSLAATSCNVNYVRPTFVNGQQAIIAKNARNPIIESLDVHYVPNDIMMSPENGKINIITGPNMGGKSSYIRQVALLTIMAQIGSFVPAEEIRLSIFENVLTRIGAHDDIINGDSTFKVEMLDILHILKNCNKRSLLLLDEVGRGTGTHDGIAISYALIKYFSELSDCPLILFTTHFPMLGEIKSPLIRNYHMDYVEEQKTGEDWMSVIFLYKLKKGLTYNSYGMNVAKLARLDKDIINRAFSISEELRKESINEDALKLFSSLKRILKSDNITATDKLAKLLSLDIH
Chain of Msh2-Msh6 (P25847 whole entry, chain 1 of 2): as the sequence (P25847 whole entry, chain 1 of 2) above
Chain of Msh2-Msh6 (Q03834 whole entry, chain 2 of 2): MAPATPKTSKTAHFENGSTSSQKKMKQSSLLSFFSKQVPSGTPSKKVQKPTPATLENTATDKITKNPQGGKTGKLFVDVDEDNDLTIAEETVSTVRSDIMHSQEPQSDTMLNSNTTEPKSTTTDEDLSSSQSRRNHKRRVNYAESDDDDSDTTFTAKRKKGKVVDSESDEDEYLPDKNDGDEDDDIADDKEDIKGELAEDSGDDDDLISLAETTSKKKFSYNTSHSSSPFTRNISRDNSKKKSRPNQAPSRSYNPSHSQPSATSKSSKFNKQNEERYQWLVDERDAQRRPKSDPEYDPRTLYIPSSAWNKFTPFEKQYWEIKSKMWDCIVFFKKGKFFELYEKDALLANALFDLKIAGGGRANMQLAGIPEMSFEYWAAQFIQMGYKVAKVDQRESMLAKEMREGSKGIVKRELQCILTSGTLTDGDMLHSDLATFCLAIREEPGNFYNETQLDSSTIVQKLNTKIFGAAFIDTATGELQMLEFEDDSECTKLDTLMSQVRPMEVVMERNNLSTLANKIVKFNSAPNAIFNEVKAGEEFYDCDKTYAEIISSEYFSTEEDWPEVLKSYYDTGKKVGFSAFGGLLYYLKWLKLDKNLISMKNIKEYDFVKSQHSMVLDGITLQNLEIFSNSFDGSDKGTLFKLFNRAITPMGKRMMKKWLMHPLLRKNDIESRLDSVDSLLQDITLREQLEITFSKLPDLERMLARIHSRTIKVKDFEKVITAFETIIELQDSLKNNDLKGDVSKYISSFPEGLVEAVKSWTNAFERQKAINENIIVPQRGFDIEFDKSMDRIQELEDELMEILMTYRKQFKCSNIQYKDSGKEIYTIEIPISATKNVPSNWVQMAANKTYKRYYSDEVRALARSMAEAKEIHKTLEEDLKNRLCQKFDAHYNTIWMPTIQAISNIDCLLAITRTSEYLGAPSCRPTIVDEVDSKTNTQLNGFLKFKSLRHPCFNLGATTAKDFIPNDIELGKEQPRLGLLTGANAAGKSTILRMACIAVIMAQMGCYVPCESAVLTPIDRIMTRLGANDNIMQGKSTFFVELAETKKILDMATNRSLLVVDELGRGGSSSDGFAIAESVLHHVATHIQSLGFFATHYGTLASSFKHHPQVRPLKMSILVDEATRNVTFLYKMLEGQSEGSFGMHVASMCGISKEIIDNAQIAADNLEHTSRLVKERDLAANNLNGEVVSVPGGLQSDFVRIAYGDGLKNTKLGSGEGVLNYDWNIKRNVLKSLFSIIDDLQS
Chain of Msh2-msh6(3MBD) (Saccharomyces cerevisiae) (P25847 whole entry, chain 1 of 2): as the sequence (P25847 whole entry, chain 1 of 2) above
Chain of Msh2-msh6(3MBD) (Saccharomyces cerevisiae) (Q03834 whole entry, chain 2 of 2): as the sequence (Q03834 whole entry, chain 2 of 2) above

Molecule: CACGCTACCGAATTCTGACTTGCTAGCTGCTGCTGCTGCTGCTGCTGCTGCTGCTGGACATCTTTGCCCACGTTGACCC / GGGTCAACGTGGGCAAAGATGTCCTAGCAAGTCAGAATTCGGTAGCGTG [(CTG)10 (LS-CTG/LS2-Bio)]
- Kd [1]: 1.05 nM

Molecule: CACGCTACCGAATTCTGACTTGCTAGGTGTGTGTGACATCTTTGCCCACGTTGACCC / GGGTCAACGTGGGCAAAGATGTCCTAGCAAGTCAGAATTCGGTAGCGTG [+8 loop, (GT)4 (LS8/LS2-Bio)]
- Kd [1]: 0.872 nM

Molecule: CACGCTACCGAATTCTGACTTGCTAGCAGCAGCAGCAGCAGCAGCAGCAGCAGCAGGACATCTTTGCCCACGTTGACCC / GGGTCAACGTGGGCAAAGATGTCCTAGCAAGTCAGAATTCGGTAGCGTG [(CAG)10 (LS-CAG/LS2-Bio)]
- Kd [1]: 2.37 nM

Molecule: CACGCTACCGAATTCTGACTTGCTAGGCATCTTTGCCCACGTTGACCC / GGGTCAACGTGGGCAAAGATGTCCTAGCAAGTCAGAATTCGGTAGCGTG [Homoduplex (LS1/LS2-Bio)]
- Kd [1]: 7.16 nM

B1: Homoduplex (LS1/LS2-Bio) (dsDNA)
DNA 1: CACGCTACCGAATTCTGACTTGCTAGGCATCTTTGCCCACGTTGACCC
DNA 2: GGGTCAACGTGGGCAAAGATGTCCTAGCAAGTCAGAATTCGGTAGCGTG
- Kd (Msh2-Msh6; [2]): 21 nM
- Kd (Msh2-Msh3; [2]): 9.22 nM

B2: (CTG)10 (LS-CTG/LS2-Bio) (dsDNA)
DNA 1: CACGCTACCGAATTCTGACTTGCTAGCTGCTGCTGCTGCTGCTGCTGCTGCTGCTGGACATCTTTGCCCACGTTGACCC
DNA 2: B1 DNA 2
- Kd (Msh2-Msh6; [3]): 3.07 nM
- Kd (Msh2-Msh3; [3]): 2.25 nM

B3: +8 loop, (GT)4 (LS8/LS2-Bio) (dsDNA)
DNA 1: CACGCTACCGAATTCTGACTTGCTAGGTGTGTGTGACATCTTTGCCCACGTTGACCC
DNA 2: B1 DNA 2
- Kd (Msh2-Msh6; [4]): 8.67 nM
- Kd (Msh2-Msh3; [4]): 2.62 nM

B4: (CAG)10 (LS-CAG/LS2-Bio) (dsDNA)
DNA 1: CACGCTACCGAATTCTGACTTGCTAGCAGCAGCAGCAGCAGCAGCAGCAGCAGCAGGACATCTTTGCCCACGTTGACCC
DNA 2: B1 DNA 2
- Kd (Msh2-Msh6; [5]): 2.73 nM
- Kd (Msh2-Msh3; [5]): 1.38 nM
